The text below walks through data of US8524460.

Experiment in all cases: ELISA: GST-PSCA fusion protein 50 ng/well, hybridoma supernatant, anti-mouse-HRP, TMB; mean of duplicates
The target of test [1] is T1, PSCA-glutathione S-transferase (GST) fusion protein (human) (UniProt O43653).
T1 sequence: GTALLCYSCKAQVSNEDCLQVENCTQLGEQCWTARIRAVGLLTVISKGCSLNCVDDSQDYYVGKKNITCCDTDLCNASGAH

Substrate in test [2]: T2, C (85-123)
T2 sequence (O43653 whole entry, species assumed, looked up): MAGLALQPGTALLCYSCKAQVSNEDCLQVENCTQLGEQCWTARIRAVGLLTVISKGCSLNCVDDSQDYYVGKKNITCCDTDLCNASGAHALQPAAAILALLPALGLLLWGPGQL

Substrate in test [3]: T3, N (2-50)
T3 sequence (O43653 whole entry, species assumed, looked up): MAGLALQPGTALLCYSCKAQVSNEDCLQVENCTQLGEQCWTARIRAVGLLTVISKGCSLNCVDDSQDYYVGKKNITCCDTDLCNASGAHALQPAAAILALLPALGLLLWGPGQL

The next test concerns the target T4, M (46-109).
T4 sequence (O43653 whole entry, species assumed, looked up): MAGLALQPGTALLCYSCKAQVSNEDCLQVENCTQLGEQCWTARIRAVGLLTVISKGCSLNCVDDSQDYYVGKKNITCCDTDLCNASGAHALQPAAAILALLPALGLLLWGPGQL

B1: anti-PSCA monoclonal antibody 4A10 (antibody, part only; not given: light chain, mouse IgG2a, V domains shown, part only)
VH: LVATASDVHSQVQLQQPGSELVRPGTSVKLSCKASGYTFSSYWMHWVKQRPGQGLEWIGNIDPGSGYTNYAENLKTKATLTVDTSSSTAYMQLSSLTSEDSAVYYCTSRSTMITTGFAYWGQGTLVTVSAATTTAPSVYPLA
In the case of B1, the OD 450 nm in test [1] was found to be 1.05 OD 450 nm; in test [2] it was 0.001 OD 450 nm; in test [3] it was 0.493 OD 450 nm.

B2: anti-PSCA monoclonal antibody 2H9 (antibody, part only; not given: light chain, mouse IgG1, part only)
VH: NDFGLSWVFIIVLLKGVRSEVRLEESGGGWVQPGGSMKLSCVASGFTFSNYWMTWVRQSPEKGLEWVAEIRLRSENYATHYAESVKGKFTISRDDSRSRLYLQMNNLRPEDSGIYYCTDGLGRPNWGQGTLVTVSAAKTTPPSVYPLAPCV
For the molecule B2, the OD 450 nm in the test with M (46-109) stood at 0.002 OD 450 nm; in test [1] it was 1.07 OD 450 nm; in test [2], 0.001 OD 450 nm; in test [3], 1.03 OD 450 nm.

B3: anti-PSCA monoclonal antibody 1G8 (antibody, part only; not given: light chain, mouse IgG1, V domains shown, part only)
VH: CFFLMAVVIGVNSEVQLQQSGAELVRSGASVKLSCTASGFNIKDYYIHWVNQRPDQGLEWIGWIDPENGDTEFVPKFQGKATMTADIFSNTAYLHLSSLTSEDTAVYYCKTGGFWGQGTLVTVSAAKTTPPSVYPL
With B3, the OD 450 nm is 1.27 OD 450 nm in the test with M (46-109), 1.49 OD 450 nm in test [1], 0.003 OD 450 nm in test [2] and 0.004 OD 450 nm in test [3].
